Earlier results, collected in publication PMC5627252.
Like-named read-outs stand apart in the source and are kept apart here.

Columns and labels:
[1] = target: FcγRIIIa (Homo sapiens) (UniProt P08637)
[2] = target: FcγRIIIa (Homo sapiens) (UniProt P08637); remark: listed apart in the source
[3] = target: FcγRIIIa (Homo sapiens) (UniProt P08637); remark: listed apart in the source

Sequence of FcγRIIIa (Homo sapiens) (P08637 17-254): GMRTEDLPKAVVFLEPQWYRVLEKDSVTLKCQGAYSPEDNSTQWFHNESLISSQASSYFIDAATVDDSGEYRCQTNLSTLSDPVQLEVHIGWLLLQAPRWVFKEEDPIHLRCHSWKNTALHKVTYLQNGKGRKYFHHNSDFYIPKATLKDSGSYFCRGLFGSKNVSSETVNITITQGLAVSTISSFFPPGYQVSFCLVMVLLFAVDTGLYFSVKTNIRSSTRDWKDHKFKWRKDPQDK

IgG1 Fc-Man5 Fc (from UniProt P01857)
Kd [1]: 0.032 µM

IgG1 Fc-Man8 Fc (from UniProt P01857)
Kd [2]: 0.026 µM

IgG1 Fc-GlcNAc Fc (from UniProt P01857)
Kd [3]: 0.995 µM
